The series can be described thus: label from the status in PepcDB records.
In the case of “MSRKYLIRITELERLLSEQAEALRQKDQQLSLVEETEAFLRSALARAEEKIEEEEREIEHLRAQIEKLRRMLFGTRSEKLQREVEQAEAQLKQREQESDRYSGREDDPQVPRQLRQSRHRRPLPAHLPREIHRLEPEESCCPECGSELDYLGEVSAEQLELVSSALKVIRTVRVKKACTKCDCIVEAPAPSRPIERGIAGSGLLARVLTGKYCEHLPLYRQSEIFARQGIELSRALLSNWVDACCQLMTLLNDTLYRYVMNTRKVHTDDTPVKVLAPGRKKAKTGRIWTYVRDDRNAGSSEPPAVWFAYSPDRQGKHPVQHLRPFRGILQADAFSGYDRLFSAEREGGALTEVACWAHARRKIHDVYISSKSATAEEALKRISELYAIEDEIRGLPESERLAVRQQRSKVLLTSLHEWMVEKNGTLSKKSRLGEACSYVLNQWDALCYYSDDGLAEADNNAAERALRAVCLGKKNFMFFGSDHGGERGALLYGLIGTCRLNGIDPEAYLRHILSVLPEWPSNRVDELLPWNVVLTNK”, the protein production entry is given as “failed”. On to “MSRLEGKIAIVTGASSGIGRAAAALCTRGGKGRRYRPQRECTCGAYTRSPEGAVRRQRLPATWATKPCEALVELAVRRFGGLDTAFNNAGARCDGRDLVARRRLARDARYQSDAPSWRRNIRFRQLRHWAAVRSPTSSFVGHTAGFAGVAPYAASKAGDRTGAGAGGRTRRARHSRERAAAAAPTRLPISRTCRERRPRRAVSEGLHALKRIARPEEIAEAALYLAGRCLRDRRCAAGRRRRFGDEGV”, for which the protein production result is reported as “not failed”. In the case of “MSRNPEVLWAQRSDKVYLTVALPDAKDISVKCEPQGLFSFSALGAQGERFEFSLELYGKIMTEYRKNVGLRNIIFSIQKEERSWWTRLLKSEEKPAPYIKVDWNKWCDEDEEVNSETASDDESAFVNQDSESSDDDGLLYLPDLEKARNK” it was “not failed”.

With “MSRNYKEDQTNEVEALDSIYCGDMEILATEPHHKFQIPIATEEYSSEEPEKGLACKLVFTFTATYPDGAPVVEIEEPENFEDMFETRLLEHLQKTIEENLGMEMIFSLVSSAQEWLNERWDEHKFHQEELREQKLREIEEEERKKFEGTRVTVESFLKWKLEFEESTGIAAKREKNNVSKKQTGRELFMCDNTLNDSDIKFLLEAGENIENVKIDETLFQDIGELDLDDDDDEDWVPGADDDDD”, the protein production entry is given as “failed”. For “MSRPDDIDVRPIAEAETADWIRALNTGFLRSPEVSEREVADRSSYLVPARTLGAFDNGRCVATFRSFPQELTAVGGASVPADAISNVTVTATHRRRGLLTRMMAQDLAAAKERGDVVATLIAAEYPIYGRYGFGAATHSTEWTIDVPRTGLDPRWSGPGDGGRIDLVDGEDVRKAGPELHERLRRTQPGAVSRDERWWQVHTGVVRLDRSPWTEPFYAVYRSASGEVEGLVSYECDDHWGDAKQPQNTAKVNWLIATTPAAERALWHYLCSIDWITKVRTGWRAPDDLLPHFLPDPRAARVTTHADWLWVRILDVVRALEARTYDGSGTLVLDVVDRHGLAGGRYRLTVGPDGAVCEPTTRDAGLTLDVGELAALWLGDASAVRLAALGRVREQQEGAASVADALLRTSGRPWCPDMF” the value was “not failed”; for “MSRQIFYMPFSLRFLFLLIIITIFGLGSLFLGVIVSAFMKIGFSAEDALLILFLSLLGSGINIPLTTLKSDIPVVKDNYIKFFGISYRIPTRQIVRNETLLAINVGGAVIPVLISAYLLTQFPSSLLLAGAGVAIVAIVTHSVARPIKGVGIATPALIPPLTSVLSAVLLTSIVHIPGCPAEPCRVIIAYTGGVLGTLIGADLLNLGKIKNLGAPVASIGGAGTFDGIFLSGFIALLLI”, “failed”; for “MSRSAFTALLLSCVLLALSMPARADDLPYRFGLGKADITGEAAEVGMMGYSSLEQKTAGIHMRQWARAFVIEEAASGRRLVYVNTDLGMIFQAVHLKVLARLKAKYPGVYDENNVMLAATHTHSGPGGFSHYAMYNLSVLGFQEKTFNAIVDGIVRSIERAQARLQPGRLFYGSGELRNANRNRSLLSHLKNPDIVGYEDGIDPQMSVLSFVDANGELAGAISWFPVHSTSMTNANHLISPDNKGYASYHWEHDVSRKSGFVAAFAQTNAGNLSPNLNLKPGSGPFDNEFDNTREIGLRQFAKAYEIAGQAQEEVLGELDSRFRFVDFTRLPIRPEFTDGQPRQLCTAAIGTSLAAGSTEDGPGPLGLEEGNNPFLSALGGLLTGVPPQELVQCQAEKTILADTGNKKPYPWTPTVLPIQMFRIGQLELLGAPAEFTVMAGVRIRRAVQAASEAAGIRHVVFNGYANAYASYVTTREEYAAQEYEGGSTLYGPWTQAAYQQLFVDMAVALRERLPVETSAIAPDLSCCQMNFQTGVVADDPYIGKSFGDVLQQPRESYRIGDKVTVAFVTGHPKNDLRTEKTFLEVVNIGKDGKQTPETVATDNDWDTQYRWERVGISASKATISWSIPPGTEPGHYYIRHYGNAKNFWTQKISEIGGSTRSFEVLGTTP”, “failed”. For “MSRSALSFAVFLAVVLSILGGMHAYLWLRLVRDPGLPEPWRRTGTVLLALLAVAIPVGMFSVRLASGWAARWLPVAAFTWLGLAFILFCAVAAIDLARLSAQLALFMGDWLRQVPDPPADPGRRLFVARAVAGGAVIAAGGSAALAFRSATGPAEIHEVAVRLDRLPPALSGLTIAQISDLHVGPAIREREVRRVVEQTNALRPDVVAITGDLVDGSVRELGHAVAELARLRARHGVFFVTGNHEYYSGVDAWVAELQRLGIRVLRNERVTVGDAGASIDLAGVDDWSSGQFGNGHGMNLPRALDGRDPDRSLVLLAHQPRAIGEAVRAGVELQLSGHTHGGQIFPFNLLVRAAYPYVKGLYPHAEGSAHGQIFVSRGTGYWGPPMRLGSPPEIARIVLT” the value was “failed”; for “MSSDAIETIETYLRPGAWVEDAAGPLYVRLRKRIEQGIDSGLLAKSAPLPAEREIASLTGLSRVTVRRAMQELVDRGIIVQRQGSGSFVADAAPRVEQSLSHLTSFTEDMERRGLNVTSEWLTRGVFIPSPEEVMALALSSGEQVARVARLRRAEGRPMAIERASLPTDILPDPELVSSSLYAVLERDGNRPVRALQRISAVNLGAEDAALLGVEPGTAGLRIIRTSYLPNRRVIEYTRSLYRADAYDFVAELRLGNS”, “failed”. Take “MSSDDAWTAAALPDQSGRRVVVTGANSGLGFEATRAFARAGAHVVMACRSTERGEDARDDIVAELPGASLTVHELDLAALDSVAAFADWFTAEFDSLHVLANNAGVMAIPRSETADGFETQFGVNHLGHVALTAGLLGVLRRTSGETRVVTQSSGAHRRGRIDFEDLQHEAEYGKWEAYSQSKLANLLFAYELDRRLRAASASVTSVACHPGYAATNLQLRGPQAAGSRLRLLAMRAANALVGQSAEQGAWPLLYAATNPSIDGGEYIGPGGVLNMRGHPERQQPSARSRDEDTARRLWTVSADRTGVDFDLPDPA”: the protein production result is listed as “failed”. For the sequence “MSSERLIYLPLGGAGEIGMNAYVYGYGKPDAERLIVVDMGVAFPDMDGSPGVDLILPDITWLQERRDRIEAVFVTHAHEDHVGAVAHTYEKLGAPVYARAFTANIARRKMAEHGHPEDAVHTVSPWPETVSAGPFKVSFLPISHSIPESSAMVIDTPEGRVIHSGDFKLDETPLVGEAFDPELWAEVSKEGVKALICDSTNVFSQHPGRSEASVGPEITNLVQSAEGMVVATTFASNVARVKTLADAGVRAGRSIVLMGRAMRRMIEAAAETGVLQDFPSVVSPEDARSIPRENLMLLVTGSQGERRAASAQLARGKYQGMEMKEGDLFPFSSKTIPGNEKGVIRIINAFSELGVDVVDDSSGLYHVSGHANRPDLERLSEIVNPQVVIPMHGEHRHLREHVKIAEQNGRTGVLAVNGMMVDLSGNQPKIAEYVETGRTYLDGTVQIGALDGVVRDRIRMALNGHVVVTLIVDEDDEPLGDPWCELKGLPETGRSKASLVDVLEADLGQWLGRADPKTMRDDDKLNEGLRRVVRQTSQDEIGKKPEVSVIVSRLS”, the protein production entry is “failed”. In the case of “MSSFFTGKDDSAVEELLSQAKDQYVLEQVAKINCSGFTDDTALPTNPETRLRRLKSLPVSRTDSVSSSPKKLLSHSNSMASHPEKKYRGNVSSVSSFSIQVGKSCPLDSSVEETQIFSKTKRNQSVKSRGGLGESSGSKRIGSSSSRFSCGNVSSTGSSSSRFSREGNISTATKTLKLPC” it was “not failed”; in that of “MSSKPLLTLQELAAQNILRNEALAISALQYLPELFLPQLLKQAYDGNHLKVLRAIVSSWPFPRLPLGALKKRTPYLETQLQVVLEEVDKLLIQEVHPREYKLEVLDLRSVGQNYLNVWPGAMDDWLPKTTQTDPCCSKTVMTQPLKVLVDLQLNNRGQSRLFSYLVQWSDRRKGLLQLYCNKLQIWSPSQQNYRKLSQKVNLDYVETLGLHSSCSPSFLLNFAPYLRQMRNLRKLALSNIREEHIISPEKRRCIITRFTLQILKLESLQKLHLDAVCFLEGHLDQLLGSVKTSLDELAVTHCNLSVSEWSHFSEFPCVSQLQQLNLENVRLTGLSPEPLQVLLVKAGPTLVALDLEDCHLEDGQLYAILPALSKCFKLTKFSFYGNQISMLAMKDLLHHTASLIHLRLELYPVPQDSYDYHGTPLMQRMQQHCDELMNLLKTFRNPGRVFFGTDRCDQCCNRYIYNKTIMCNCRRSY”, “failed”; in that of “MSSKQHCVKLNDGHLIPALGFGTYKPKEVPKSKSLEAACLALDVGYRHVDTAYAYQVEEEIGQAIQSKIKAGVVKREDLFVTTKLWCTCFRPELVKPALEKSLKKLQLDYVDLYIMHYPVPMKSGDNDFPVNEQGKSLLDTVDFCDTWERLEECKDAGLVKSIGVSNFNHRQLERILNKPGLKYKPVCNQVECHLYLNQRKLLDYCESKDIVLVAYGALGTQRYKEWVDQNSPVLLNDPVLCDVAKKNKRSPALIALRYLIQRGIVPLAQSFKENEMRENLQVFGFQLSPEDMKTLDGLNKNFRYLPAEFLVDHPEYPFVEEY”, “not failed”. For “MSSLRHRRYVLGGLLAAIGVLAAAVLWNVVGTVFFAVTVAYVLYPARQRLVNRGVPRRVASGLLTAAAFLTVVVLLAPIAWTIFRQRGAILEFLNNLPDELPVEAFGFVVTIDVADLVDTTADTLQSIAISLAADAIFLALQLLMFALVLYGLLLRPNAVGRAAFRVTPSPYHDILVALHRRIAGTLYALYVIQAATAVITFPLALIVFYLLGYPDVFVLAVLAALLQFIPIVGPGMLAAGLAGHDVLVGMPHRAVGVIILGPLFVGLLPDLLVRPRLAASKAKLPASLYFVGFVGGVLTVGVIGIIAGPLVVALLVEAVNLLSERNQSAA” the value was “failed”; for “MSSMNANAENSESKPKSGNDPLDHEGGDSSAASEDPNKSKTVSSDDDLSETNKEKEEEDCEECWLSRYLKKGDCKDAFIEVDHCREVKDDGTNCRDARLKLITCMYTNVDYYGPFLAMQKEMRTQSLKELEQGEEAAAAAKKKEEEEETKGK”, “failed”.

Turning to “MSSPTRTSAKDRLSGVWALKGYKREWLRHDIVAGAALFALLVPAGMAYAQAAGLPPVTGLYATVVPLLVYAIVGPSRILVLGPDSALAPMIAAAIVPLAAGSSEKSVALAGLLAVLIGVIMLAGSALKLGTITGLLSKPIRLGYLNGIALLVLLSQLPAFFGIEADGDIWEKLAKVTTGVLGGGVNVTALLLGSGSLALIWIPRLLKWKVPGVLLAVVGSCVVTAVWGLNDDVKVTGVLPQGLPMPALGGIGWADALTLLPAAAGIALMAFADTGVLSQTLAAKEGKKVSGNREMAALGAANAATGLLGGFPISGSTSRTPVAVDAGAKSQMTGVVGSVLVLAFMLLAPGVTEYLPSATLAAVVIAAAIALADPAGVKRLLSLSRSESVVMLAAFLGVLTVGVLQGIVVAIALALLDFVRRAWDPYRTELGAEEGLPGYHDLERHPDGERIPGLLILRFDAPLFFGNGQVLAAFVREQLDEAPDETTDAITHVILAAEPITGIDTTALDDLVTLDEWLASKGVDLVFAELKGPVKDKLIHLGTAARFTPDHFFPTVGAAVRTLKNE”, the protein production entry was “failed”.

For the origin of these results see a protein production outcome set (Wang et al. 2014).
